In patent publication US20120171240A1 (UNIVERSITY OF LOUISVILLE RESEARCH FOUNDATION, published 2012):
One block for each molecule: values may come before it.

Columns and labels:
[1] = target: 4-1BB receptor on mouse T cells (mouse) (UniProt P20334); assay: cell-based or functional assay
human CD40 receptor = human CD40 receptor (human, UniProt P25942 21-277); assay: cell-based or functional assay
Sequence of human CD40 receptor (P25942 21-277): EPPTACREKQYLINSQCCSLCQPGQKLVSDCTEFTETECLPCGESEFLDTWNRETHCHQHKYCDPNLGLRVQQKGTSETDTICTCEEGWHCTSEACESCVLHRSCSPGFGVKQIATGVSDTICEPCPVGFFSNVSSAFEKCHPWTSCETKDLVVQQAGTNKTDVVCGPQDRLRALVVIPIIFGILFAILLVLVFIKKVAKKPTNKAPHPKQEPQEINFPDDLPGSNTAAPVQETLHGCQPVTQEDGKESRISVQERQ

Sequence of 4-1BB receptor on mouse T cells (mouse) (P20334 24-256): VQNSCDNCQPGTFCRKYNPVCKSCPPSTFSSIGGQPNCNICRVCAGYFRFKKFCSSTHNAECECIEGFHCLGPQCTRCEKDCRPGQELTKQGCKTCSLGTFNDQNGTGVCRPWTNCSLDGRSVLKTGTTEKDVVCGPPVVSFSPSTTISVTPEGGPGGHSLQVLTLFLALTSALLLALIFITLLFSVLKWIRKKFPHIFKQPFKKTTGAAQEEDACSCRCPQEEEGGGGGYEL

- proliferation of CFSE-labeled CD4+CD25- (SP) T cells, percent dividing [1]: 60%
- proliferation of SP T cells in co-culture with CD4+CD25+ (DP) Treg cells, percent dividing [1]: 34%
Molecule: CSA-4-1BBL fusion protein (ligand)

- iNOS production, Western blot, IFN-γ primed CD40KO-human CD40 macrophages (human CD40 receptor): 6 fold
Molecule: commercially available trimeric recombinant human CD40L (rhsCD40L) (from UniProt P29965 116-261) (ligand)

- IL-6 mRNA, RNAse protection assay, murine CD40KO macrophage line expressing human CD40 (human CD40 receptor): 2.8 fold
- human IL-10 production (printed so; summed up as IL-1β) by human monocytes, ELISA, 18 h (human CD40 receptor): 5 fold
- iNOS production, Western blot, IFN-γ primed CD40KO-human CD40 macrophages (human CD40 receptor): 9 fold
B1: CSA-hCD40L (fusion of core streptavidin and the extracellular domain of human CD40L) (ligand)
chain: RSHHHHHHITGTWYNQLGSTFIVTAGADGALTGTYESAVGNAESRYVLTGRYDSAPATDGSGTALGWTVAWKNNYRNAHSATTWSGQYVGGAEARINTQWLLTSGATEANAWKSTLVGHDTFTKVKPSAASSEFLDKIEDERNLHEDFVFMKTIQRCNTGERSLSLLNCEEIKSQFEGFVKDIMLNKEETKKENSFEMQKGDQNPQIAAHVISEASSKTTSVLQWAEKGYYTMSNNLVTLENGKQLTVKRQGLYYIYAQVTFCSNREASSQAPFIASLCLKSPGRFERILLRAANTHSSAKPCGQQSIHLGGVFELQPGASVFVNVTDPSQVSHGTGFTSFGLLKL
